Experimental data reported in patent US20240301086A1 (APTEVO RESEARCH AND DEVELOPMENT, published 2024).

B1: PSMA01036 Anti-PSMA scFv-Fc (Fc fusion)
chain: DIQMTQSPSTLSASVGDRVTITCRASKSISKYLAWYQQKPGKAPKLLIHSGSSLESGVPSRFSGSGSGTEFTLTISSLQPDDFATYYCQQHIEYPWTFGQGTKVEIKGGGGSGGGGSGGGGSGGGGSQVQLVQSGAEVKKPGASVKVSCKASGYTFTDYYMHWVRQAPGQGLEWMGYFNPYNDYTRYAQKFQGRVTMTRDTSTSTVYMELSSLRSEDTAVYYCARSDGYYDAMDYWGQGTTVTVSSSEPKSSDKTHTCPPCPAPPAAAPSVFLFPPKPKDTLMISRTPEVTCVVVDVSHEDPEVKFNWYVDGVEVHNAKTKPREEQYNSTYRVVSVLTVLHQDWLNGKEYKCAVSNKALPAPIEKTISKAKGQPREPQVYTLPPSRDELTKNQVSLTCLVKGFYPSDIAVEWESNGQPENNYKTTPPVLDSDGSFFLYSKLTVDKSRWQQGNVFSCSVMHEALHNHYTQKSLSLSPGK
B2: PSMA01037 Anti-PSMA scFv-Fc (Fc fusion)
chain: QVQLVQSGAEVKKPGASVKVSCKASGYTFTDYYMHWVRQAPGQGLEWMGYFNPYNDYTRYAQKFQGRVTMTRDTSTSTVYMELSSLRSEDTAVYYCARSDGYYDAMDYWGQGTTVTVSSGGGGSGGGGSGGGGSGGGGSDIQMTQSPSTLSASVGDRVTITCRASKSISKYLAWYQQKPGKAPKLLIHSGSSLESGVPSRFSGSGSGTEFTLTISSLQPDDFATYYCQQHIEYPWTFGQGTKVEIKSSSEPKSSDKTHTCPPCPAPPAAAPSVFLFPPKPKDTLMISRTPEVTCVVVDVSHEDPEVKFNWYVDGVEVHNAKTKPREEQYNSTYRVVSVLTVLHQDWLNGKEYKCAVSNKALPAPIEKTISKAKGQPREPQVYTLPPSRDELTKNQVSLTCLVKGFYPSDIAVEWESNGQPENNYKTTPPVLDSDGSFFLYSKLTVDKSRWQQGNVFSCSVMHEALHNHYTQKSLSLSPGK
notes: also called PSMA010137
B3: PSMA01040 Fc-linker anti PSMA scFv (Fc fusion)
chain: SSEPKSSDKTHTCPPCPAPPAAAPSVFLFPPKPKDTLMISRTPEVTCVVVDVSHEDPEVKFNWYVDGVEVHNAKTKPREEQYNSTYRVVSVLTVLHQDWLNGKEYKCAVSNKALPAPIEKTISKAKGQPREPQVYTLPPSRDELTKNQVSLTCLVKGFYPSDIAVEWESNGQPENNYKTTPPVLDSDGSFFLYSKLTVDKSRWQQGNVFSCSVMHEALHNHYTQKSLSLSPGGGGSPSDIQMTQSPSTLSASVGDRVTITCRASKSISKYLAWYQQKPGKAPKLLIHSGSSLESGVPSRFSGSGSGTEFTLTISSLQPDDFATYYCQQHIEYPWTFGQGTKVEIKGGGGSGGGGSGGGGSGGGGSQVQLVQSGAEVKKPGASVKVSCKASGYTFTDYYMHWVRQAPGQGLEWMGYFNPYNDYTRYAQKFQGRVTMTRDTSTSTVYMELSSLRSEDTAVYYCARSDGYYDAMDYWGQGTTVTVSSR
B4: PSMA01041 Fc-linker-anti PSMA scFv (Fc fusion)
chain: SSEPKSSDKTHTCPPCPAPPAAAPSVFLFPPKPKDTLMISRTPEVTCVVVDVSHEDPEVKFNWYVDGVEVHNAKTKPREEQYNSTYRVVSVLTVLHQDWLNGKEYKCAVSNKALPAPIEKTISKAKGQPREPQVYTLPPSRDELTKNQVSLTCLVKGFYPSDIAVEWESNGQPENNYKTTPPVLDSDGSFFLYSKLTVDKSRWQQGNVFSCSVMHEALHNHYTQKSLSLSPGGGGSPSQVQLVQSGAEVKKPGASVKVSCKASGYTFTDYYMHWVRQAPGQGLEWMGYFNPYNDYTRYAQKFQGRVTMTRDTSTSTVYMELSSLRSEDTAVYYCARSDGYYDAMDYWGQGTTVTVSSGGGGSGGGGSGGGGSGGGGSDIQMTQSPSTLSASVGDRVTITCRASKSISKYLAWYQQKPGKAPKLLIHSGSSLESGVPSRFSGSGSGTEFTLTISSLQPDDFATYYCQQHIEYPWTFGQGTKVEIKR
B5: PSMA01086 Anti PSMA scFv x Fc; Anti PSMA scFv x Fc x linker x Anti CD3 scFv (bispecific antibody)
chain 1: QVQLVQSGAEVKKPGASVKVSCKASGYTFTDYYMHWVRQAPGQGLEWMGYFNPYNDYTRYAQKFQGRVTMTRDTSTSTVYMELSSLRSEDTAVYYCARSDGYYDAMDYWGQGTTVTVSSGGGGSGGGGSGGGGSGGGGSDIQMTQSPSSLSASVGDRVTITCRASKSISKYLAWYQQKPGKAPKLLIHSGSSLESGVPSRFSGSGSGTEFTLTISSLQPDDFATYYCQQHIEYPWTFGQGTKVEIKEPKSSDKTHTCPPCPAPPAAAPSVFLFPPKPKDTLMISRTPEVTCVVVDVSHEDPEVKFNWYVDGVEVHNAKTKPREEQYNSTYRVVSVLTVLHQDWLNGKEYKCAVSNKALPAPIEKTISKAKGQPREPQVYTLPPSRDELTKNQVSLWCLVKGFYPSDIAVEWESNGQPENNYKTTPPVLDSDGSFFLYSKLTVDKSRWQQGNVFSCSVMHEALHNHYTQKSLSLSPG
chain 2: QVQLVQSGAEVKKPGASVKVSCKASGYTFTDYYMHWVRQAPGQGLEWMGYFNPYNDYTRYAQKFQGRVTMTRDTSTSTVYMELSSLRSEDTAVYYCARSDGYYDAMDYWGQGTTVTVSSGGGGGGGGSGGGGSGGGGSDIQMTQSPSSLSASVGDRVTITCRASKSISKYLAWYQQKPGKAPKLLIHSGSSLESGVPSRFSGSGSGTEFTLTISSLQPDDFATYYCQQHIEYPWTFGQGTKVEIKEPKSSDKTHTCPPCPAPPAAAPSVFLFPPKPKDTLMISRTPEVTCVVVDVSHEDPEVKFNWYVDGVEVHNAKTKPREEQYNSTYRVVSVLTVLHQDWLNGKEYKCAVSNKALPAPIEKTISKAKGQPREPQVYTLPPSRDELTKNQVSLSCAVKGFYPSDIAVEWESNGQPENNYKTTPPVLDSDGSFFLVSKLTVDKSRWQQGNVFSCSVMHEALHNRFTQKSLSLSPGGGGSPSDIQMTQSPSSLSASVGDRVTITCRASSSVSYMNWYQQKPGKAPKRWIYDSSKLASGVPSRFSGSGSGTDFTLTISSLQPEDFATYYCQQWSRNPPTFGQGTKVEIKGGGGSGGGGSGGGGSGGGGSQVQLVQSGAEVKKPGASVKVSCKASGYTFTRSTMHWVRQAPGQGLEWIGYINPSSAYTNYAQKFQGRVTLTADKSTSTAYMELSSLRSEDTAVYYCASPQVHYDYNGFPYWGQGTLVTVSS

How the values were obtained:
[1] = molecular target: T1, Full-length Human PSMA (TSC435), on cells (human, UniProt Q04609 1-750); test: flow cytometry on C4-2B cells, PE goat anti-human IgG Fc secondary, MFI (median)
T1 construct: also called CHOK1SV/huPSMA; PSMA on C4-2B, 22RV1, LNCaP, MDA-PCa-2b cells
T1 sequence (Q04609 whole entry): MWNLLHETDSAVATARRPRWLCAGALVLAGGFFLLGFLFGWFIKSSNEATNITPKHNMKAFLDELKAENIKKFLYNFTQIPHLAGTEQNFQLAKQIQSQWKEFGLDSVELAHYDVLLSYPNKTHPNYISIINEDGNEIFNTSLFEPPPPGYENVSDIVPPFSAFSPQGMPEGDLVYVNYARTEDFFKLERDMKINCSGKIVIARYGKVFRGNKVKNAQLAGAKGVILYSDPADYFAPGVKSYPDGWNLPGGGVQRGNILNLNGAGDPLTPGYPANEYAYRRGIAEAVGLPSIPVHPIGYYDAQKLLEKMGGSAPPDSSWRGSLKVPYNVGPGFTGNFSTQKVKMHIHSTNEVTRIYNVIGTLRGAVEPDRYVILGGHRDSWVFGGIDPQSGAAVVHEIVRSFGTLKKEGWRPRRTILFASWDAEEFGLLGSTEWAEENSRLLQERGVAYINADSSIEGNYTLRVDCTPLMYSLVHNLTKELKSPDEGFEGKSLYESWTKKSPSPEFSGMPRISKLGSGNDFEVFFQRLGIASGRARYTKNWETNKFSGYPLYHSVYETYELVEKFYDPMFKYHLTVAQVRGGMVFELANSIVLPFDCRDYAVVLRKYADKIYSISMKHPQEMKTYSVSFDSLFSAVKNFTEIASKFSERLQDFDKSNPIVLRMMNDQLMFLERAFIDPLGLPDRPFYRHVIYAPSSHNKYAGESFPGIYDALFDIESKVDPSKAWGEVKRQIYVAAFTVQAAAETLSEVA
Method: The PSMA-binding domain PSMA01023 was evaluated in several different structural formats, including an alternative Fc region with different mutations to eliminate effector function. The PSMA01023 binding domain was configured in scFv-Fc format in VL-VH (PSMA01036) and VH-VL (PSMA01037) orientations and in Fc-scFv format in VL-VH (PSMA01040) and VH-VL (PSMA01041) orientations. These molecules were evaluated for the impact of the orientation of the scFv domains (VH-VL versus VL-VH) and position on the Fc (N- vs. C-terminus) on binding to PSMA (+) tumor cells.
C4-2B and 22RV1 cells were labelled at approximately 100,000 cells per well, in 96-well plates, with serial dilutions of PSMA-binding constructs ranging from of 0.1 to 300 nM for 30 min on ice, followed by washes and incubation with PE-labeled minimum cross species reactive secondary antibody, goat anti-human IgG Fcγ, F(ab′)2 (Jackson Laboratory) for 30 minutes on ice. Washes and incubation were done in staining buffer (PBS with 0.2% BSA and 2 mM EDTA). Cells were collected using a BDM LSRII or a BD FACSymphony™ flow cytometer (BD Biosciences) and analyzed by FlowJo flow cytometry analysis software. Median fluorescence intensity (MFI) of bound molecules on cells was determined after exclusion of doublets. Graphs were plotted using GraphPad Prism 7®.

[2] = molecular target: T2, human CD3ε in the TCR/CD3 complex on Jurkat cells (human, UniProt P07766 23-207); test: flow cytometry on Jurkat cells, PE goat anti-human IgG Fc secondary, MFI (median)
T2 construct: whole, on cells; On the cells it stands in the whole TCR/CD3 complex; also called CD3 (+) cells; CD3-expressing Jurkat cells
T2 sequence (P07766 23-207, one chain of several): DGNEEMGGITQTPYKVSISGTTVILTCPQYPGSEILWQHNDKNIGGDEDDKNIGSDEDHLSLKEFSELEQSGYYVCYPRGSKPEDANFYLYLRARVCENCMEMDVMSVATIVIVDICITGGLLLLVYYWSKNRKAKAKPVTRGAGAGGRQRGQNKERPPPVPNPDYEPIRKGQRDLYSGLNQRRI

[3] = molecular target: T1, Full-length Human PSMA (TSC435), on …; test: flow cytometry on C4-2B cells, PE goat anti-human IgG Fc secondary, MFI (median); remark: listed apart in the source

Row | Binder | binding result [1] | EC50 [2] | EC50 [3]
1 | B1 | binds | – | –
2 | B2 | binds | – | –
3 | B3 | binds | – | –
4 | B4 | binds | – | –
5 | B5 | – | > 261 nM | 1 nM
